# Assay results reported in the RNAGym collection of RNA variant scans (doi:10.1073/pnas.2313332121).
# B1: TPR t1 (parent)
# chain: GACCAAUCUGCCCUCAGAGCUCGAGAACAUCUUCGGAUGCAGAGGAGGCAGGCUUCGGUGGCGCGAUAGCGCCAACGUCCUCAACCUCCAAUGCAUCCCACCACAUGAUGAUGCCUGAAGAGCCUUGGUUUUUUG
# Variants of: B1
# Assay: polymerase ribozyme fitness, log enrichment relative to wild type (log ratio); higher = more active; in vitro selection for triplet polymerase activity
# In short: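 Both subunits of a heterodimeric triplet polymerase ribozyme were given their own mutant library, built by PCR and transcribed. Each library was annealed with a biotinylated primer, the partner subunit and triplets, incubated frozen at −7 °C, and its extended constructs gel-excised, captured on streptavidin beads and amplified by RT-PCR, all in one round done in triplicate. Fitness is the logarithm of genotype enrichment relative to wild-type enrichment, with replicates averaged by inverse-variance weighting. That logarithm is base 2, and Illumina-sequenced genotypes needed ≥10 input reads and ≥1 read per output.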
row,Variant,polymerase ribozyme fitness (log ratio)
1,C12A A26U,-3.83
2,C12A G45A C85A,-3.04
3,C12A A66G G69U G71U,-2.65
4,C11U G42U C101A,-3.62
5,C12A C72U G113C,-4.5
6,C12A G47C C70U G120C,-1.04
7,C11U U133G,-0.78
8,C12A A16C,-2.4
9,C11U G93C U112A G127C U134A,-0.699
10,C12A C15G C56G,-2.69
11,C11U U30A,-4.5
12,C12A A37U U78C C82U A108G,-3.38
13,C11U G23A,-5.77
14,C12A G45U C56U U78A,-1.36
15,C11U G17C C49A G58C,-6.04
16,C12A C13A C62U U78G C115G C124G G127U,-6.43
17,C11U G60A U106C G128C,-3.82
18,C12A A43G C62U C124G G127U,-0.505
19,C11U G122A G128C U131C,-0.489
20,C11U C40U C101A,-2.4
21,C11U C73U,-0.94
22,C11U C73G,0.0999
23,C12A A16U A50U A74U,-5.14
24,C12A G42A,-1.63

row,Variant,polymerase ribozyme fitness (log ratio)
1,C11U G117C,-2.78
2,C11U G117U,-2.72
3,C11U G117A,-2.36
4,C12A C72G A91C U96A,-2.9
5,C12A A27C C40G G63C G120A,-2.65
6,C11U C56A C82U C86G,-1.73
7,C11U G19U U54A A121C G135U,-2.38
8,C11U G61U,-0.841
9,C11U G61C,-1.64
10,C12A C79A,-1.35
11,C12A G36U G48A G63C C123A,-0.6
12,C12A C13U U54A C72U C89A,-1.99
13,C11U U33G A121C,-4.56
14,C11U G93C G122A,-0.0927
15,C11U C124U,1.63
16,C11U C124G,1.46
17,C11U C85A,-2.42
18,C12A G45U A100U,-3.05
19,C11U U32C C123G,1.18
20,C12A A43C G61U C123G,-0.577
21,C11U C123G,1.73
22,C11U C123A,0.93
23,C11U G45C C88A,-0.484
24,C11U U87A,0.703

row,Variant,polymerase ribozyme fitness (log ratio)
1,C11U C114A C123U,-2.21
2,C12A C88U,-0.873
3,C11U G45C U81G,-4.91
4,C12A C53G U54C A121C,1.77
5,C12A C123U G128C,0.474
6,C12A G42U G60A U87A G113A,-4.01
7,C12A A41U A90C,-1.95
8,C12A C62G,-0.737
9,C12A G36U G63A,-2.46
10,C11U G45A G48A A74U,-2.5
11,C12A C80U A84U C89U A119G C123A,0.231
12,C11U G42C C64U C94U,-1.83
13,C11U G47C G71U U92G G113C,-5.32
14,C11U U54G G61U U106A G113C C114A,-6.66
15,C11U U32A G93A A100U A105G,-4.99
16,C12A G17U,-3.81
17,C12A G17A,-4.31
18,C12A C49U G69C C80G C115G,-8.79
19,C12A C53U U106G G113C G127C,-5.83
20,C12A C70A C80U,-2.16
21,C12A C56A,-1.02
22,C12A C56U,0.0114
23,C12A A46U C62U C98G C115G U132G,-6.35
24,C12A A18G C82A C101A U130G,-7.19

row,Variant,polymerase ribozyme fitness (log ratio)
1,C12A C22U U96A,-4.9
2,C11U U132A,-0.17
3,C12A G39U G117A,-2.74
4,C11U G23A G61A G113U,-6.08
5,C12A G45U G58C C98U C101A,-3.82
6,C12A G36U C64U A83G G113A,-4.18
7,C12A G51U A90G,-2.76
8,C12A C15U C70U C86U,-2.81
9,C12A C102U,-2.56
10,C12A G19U C79G,-5.7
11,C11U C40U G120A,-0.013
12,C11U C82U C104A U112A,0.128
13,C12A C20U C114U,-0.454
14,C12A G63C,-1.33
15,C12A G63A,-1.5
16,C12A G63U,-2.42
17,C12A G69A A90U U109A C115A,-7.7
18,C12A G47C C49A U125A,-2.88
19,C11U G69A A84C C123U,-0.562
20,C11U G71U U132C,-0.794
21,C11U U125G,-1.31
22,C11U U125A,-0.822
23,C11U C53U,0.00138
24,C11U C53A,-0.286

row,Variant,polymerase ribozyme fitness (log ratio)
1,C11U C53G,-0.654
2,C11U G47A G61U U78A,-0.709
3,C12A A75G,-0.0398
4,C11U C34A G48U U87A,-5.34
5,C12A C72U C102U C114G,-5.72
6,C11U U59G G93C U129C,-1.93
7,C11U G45C G57A G61U U132C,-3.81
8,C11U C40U A121C U129G,0.406
9,C12A A43U,-2.89
10,C12A C34G G120A,-4.45
11,C11U G42U,-2.17
12,C11U C49A G107U G113C,-6.14
13,C12A G60A C88A C101A C102A,-4.87
14,C11U C53A G69U G93C C94U,-0.279
15,C12A A91G U112A G127C,-1.8
16,C12A A29C A84C,-3.21
17,C11U C34U C86G C102U A121U,-1.28
18,C11U U32C C97G,-4.82
19,C12A C53G,-1.23
20,C12A G42C G69U C80U,-1.06
21,C11U C49G G61U A90C,-2.04
22,C11U G44C C101A,-2.7
23,C12A C115U,-1.21
24,C12A C80A G120U,-0.968

row,Variant,polymerase ribozyme fitness (log ratio)
1,C11U G71U,0.863
2,C11U C56U A95G,-0.936
3,C12A A50U A74C A84G U112A,-4.85
4,C11U U96A G110U,-2.95
5,C11U G58A G69U,-0.296
6,C11U G17A A46G G57C C72U C115A G120C U134A,-0.588
7,C12A C70U U78G,-1.07
8,C12A A84U G110A C114U,-5.31
9,C11U U87G C102U,-1.67
10,C12A G19U G23U G47A G52C G69U G110C,-7.34
11,C11U G52A C56U C72G U109G,-5.83
12,C12A G47U,-2.48
13,C12A G47A,-1.98
14,C12A G48A,-0.767
15,C11U G51C C85U,-4.53
16,C12A,-0.413
17,C12A C40G,-1.7
18,C12A C40U,-1.32
19,C12A C34U,-4.77
20,C12A G57A G60A,-0.307
21,C12A G19U C40G C89U C102A U112C C114A,-2.47
22,C12A C53A A108G,-2.7
23,C11U C40U,-0.173
24,C12A G61U U109G,-7.2

row,Variant,polymerase ribozyme fitness (log ratio)
1,C11U U54G C73U C97U G120C,0.506
2,C12A A18C U81G G120A,-5.16
3,C11U C101U,-0.727
4,C11U C79G G93U,-3.61
5,C12A C72G U133C,-1.17
6,C12A C82G,-1.17
7,C12A G51A C62U U96A,-5.39
8,C12A A16C A29U G47A G61A,-3.43
9,C11U C40G G48U G61C C97U G120U,-4.02
10,C11U G25U,-5.82
11,C12A C56A C62U A91U G128C,-5.72
12,C11U U112G,-0.177
13,C12A C56U C94G,-2.21
14,C12A C13U A95U A100U G110A,-2.79
15,C11U C40G C82U A100U,-4.42
16,C12A C15U G52U C62A C86U G117C,-5.92
17,C11U G51A C56G C124A,-0.733
18,C12A C124G G127U,1.3
19,C12A A37C G71A A108G U112G,-7.07
20,C11U G69U,0.459
21,C12A C28U C40U A41U,-4
22,C11U G61C G120U G122U,-1.06
23,C12A A37U U78A A83G U106C,-3.17
